Source: US20100311648A1 (AstraZeneca / MedImmune, published 2010)
Read-outs that look alike come from different tables or passages of the source. Positions of bridges follow the written chain, without caps; N, C: chain ends. Non-standard residues stand in square brackets, D forms with d. dPhe(2-CF3) = N[C@H](Cc1ccccc1C(F)(F)F)C(=O)O; dPhe(4-CN) = N#Cc1ccc(C[C@@H](N)C(=O)O)cc1; Orn = NCCC[C@H](N)C(=O)O; Dab = NCC[C@H](N)C(=O)O

What was measured:
[1] = molecular target: T1, human melanocortin-4 receptor (human, UniProt P32245 1-332); experiment: cell-based or functional assay
[2] = molecular target: T2, melanocortin-1 receptor (mouse (B-16 melanoma cells); in some …, UniProt Q01727 1-315); experiment: [I125]-NDP-α-MSH competition, MC1-R membranes
T2 construct: whole, on cells; membrane homogenates; also called MC1-R; mouse B16 MC1-R
Experimental: A competitive inhibition binding assay was performed for exemplified peptides according to the invention using membrane homogenates prepared from HEK-293 cells that express recombinant hMC4-R, hMC3-R, or hMC5-R, and from B-16 mouse melanoma cells (containing endogenous MC1-R). In some instances, HEK-293 cells that express recombinant hMC1-R were employed. Assays were performed in 96 well GF/B Millipore multiscreen filtration plates (MAFB NOB10) pre-coated with 0.5% bovine serum albumin (Fraction V). […] After incubation for 60 minutes at 37° C., the assay mixture was filtered and the membranes washed three times with ice-cold buffer. Filters were dried and counted in a gamma counter for bound radioactivity. […] Each assay was conducted in triplicate and the actual mean values are described, with results less than 0% reported as 0%. Ki values for test peptides of the present invention were determined using Graph-Pad Prism® curve-fitting software.

[3] = molecular target: T1, human melanocortin-4 receptor; experiment: [I125]-NDP-α-MSH competition, hMC4-R HEK-293 membranes
[4] = molecular target: T1, human melanocortin-4 receptor; experiment: cell-based or functional assay; remark: listed apart in the source
[5] = molecular target: T1, human melanocortin-4 receptor; experiment: Ki of Table 1; receptor not given, taken as hMC4-R

T1 sequence (P32245 whole entry): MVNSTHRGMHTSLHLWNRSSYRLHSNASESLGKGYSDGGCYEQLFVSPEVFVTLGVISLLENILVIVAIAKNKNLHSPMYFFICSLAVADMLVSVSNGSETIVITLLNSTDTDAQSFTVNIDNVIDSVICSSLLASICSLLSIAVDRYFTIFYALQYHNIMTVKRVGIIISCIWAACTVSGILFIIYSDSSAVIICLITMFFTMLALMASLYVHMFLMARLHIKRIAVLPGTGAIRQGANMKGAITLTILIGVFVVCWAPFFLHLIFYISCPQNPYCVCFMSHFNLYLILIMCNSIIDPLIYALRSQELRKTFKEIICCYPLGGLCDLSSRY
T2 sequence (Q01727 whole entry): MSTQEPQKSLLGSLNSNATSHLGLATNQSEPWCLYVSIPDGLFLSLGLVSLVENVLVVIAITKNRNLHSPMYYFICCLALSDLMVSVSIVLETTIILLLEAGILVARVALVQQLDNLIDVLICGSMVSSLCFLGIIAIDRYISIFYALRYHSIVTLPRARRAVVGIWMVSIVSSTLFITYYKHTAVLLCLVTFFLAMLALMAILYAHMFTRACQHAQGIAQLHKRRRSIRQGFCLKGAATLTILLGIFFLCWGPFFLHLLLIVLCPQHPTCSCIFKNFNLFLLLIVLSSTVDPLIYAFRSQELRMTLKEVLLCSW

Row | EC50, cAMP, 0.1 ng/mL Doxycycline [1] | EC50, cAMP, 10 ng/mL Doxycycline [1] | Intrinsic Activity, cAMP, 0.1 ng/mL Doxycycline [1] | Intrinsic Activity, cAMP, 10 ng/mL Doxycycline [1] | Ki [2] | Ki [3] | EC50, cAMP, 0.1 ng/mL Doxycycline [4] | Ki [5] | Binder
1 | 1 nM | 0.185 nM | 73% | 117% | 93 nM | 8 nM |  |  | Ac-REQ[dPhe(2-CF3)]RW[Orn]-NH2 (lactam 2-7, also called No. 114) [Ac-Arg-cyclo(Glu-Gln-D-Phe(2-CF3)-Arg-Trp-Orn)-NH2]
2 | 9 nM | 0.483 nM | 36% | 96% | 3970 nM | 40 nM |  |  | Ac-REQ[dPhe(4-CN)]RW[Orn]-OH (lactam 2-7, also called No. 86) [Ac-Arg-cyclo(Glu-Gln-D-Phe(4-CN)-Arg-Trp-Orn)-OH]
3 |  |  |  |  |  |  | 0.33 nM | 0.65 nM | Ac-RE[Dab][dF]RW[Orn]-NH2 (lactam 2-7) [Ac-Arg-cyclo(Glu-Dab-D-Phe-Arg-Trp-Orn)-NH2]
